Biological target: GST-PfMTIP (P. falciparum (3D7)) (UniProt Q8I4W8)
Experiment: pull-down; GST or GST-MTIP coupled to glutathione-Sepharose 4B; 25 µg His-tagged Rab protein incubated overnight at 4°C; four washes in PBS (0.1% Triton X-100); detected by anti-His immunoblot

With PfRab11A-His (natural protein) the percent of input detected in the pull-down was 5%.

Source: article PMC2622761
